As a reminder, the Kd is the concentration at which binding is half-saturated. A higher Kd goes with a looser complex.

For one substance, % Internalization of c-Met after 2 h on OVCAR-8 cells (=100-% antibody on cell surface), % c-Met receptor on OVCAR-8 cell surface measured after 2 h and Kd results are on record in patent US20100254989A1.

In assay [1] the target is c-Met receptor on OVCAR-8 cells (human) (UniProt P08581). In words: cell-based or functional assay.
The next assay deals with human c-Met ECD (human) (UniProt P08581). In words: SPR (Biacore T100), antibody captured by anti-Fc gamma, c-Met ECD in solution, 25 C. On the technique in general: In SPR one partner is held on a chip, and binding of the other changes the refractive index at the surface.

On to “BsAB01, trivalent bispecific <ErbB1-c-Met> antibody (full length cetuximab with one c-Met 5D5 single chain Fab fragment at the C-terminus of the knob heavy chain) (bispecific antibody)”, for which, in assay [1], the % Internalization of c-Met after 2 h on OVCAR-8 cells (=100-% antibody on cell surface) is -14% and the % c-Met receptor on OVCAR-8 cell surface measured after 2 h was found to be 114%. In the assay with human c-Met ECD (human), this substance came in with an equilibrium dissociation constant (Kd) of 5.5 nM.
